Results reported in FireProtDB.
Values joined by “and” are separate entries in the source; they are usually repeats but may differ in a detail not shown here. Equal values may be shown once.

[1] = Escherichia coli (strain K12), pH 7, 30 °C, Urea, CD, Potassium phosphate 10 mM
[2] = Escherichia coli (strain K12), pH 7.5, Thermal, CD, Potassium phosphate 10 mM, reversible: yes, structure 1EZA
[3] = Escherichia coli (strain K12), pH 7.5, Thermal, DSC, Potassium phosphate 10 mM, reversible: yes, structure 1EZA
[4] = Bos taurus, pH 8, Thermal, DSC, Tris-HCl 10 mM, NaCl 200 mM, reversible: yes

Superoxide dismutase [Cu-Zn] wild type, P00442, sequence (P00442 whole entry): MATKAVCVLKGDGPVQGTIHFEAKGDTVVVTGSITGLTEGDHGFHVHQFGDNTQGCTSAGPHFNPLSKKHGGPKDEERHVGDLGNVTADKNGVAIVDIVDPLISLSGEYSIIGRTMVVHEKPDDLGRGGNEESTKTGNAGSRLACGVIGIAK
Tropomyosin alpha-1 chain wild type, P04268, sequence (P04268 whole entry): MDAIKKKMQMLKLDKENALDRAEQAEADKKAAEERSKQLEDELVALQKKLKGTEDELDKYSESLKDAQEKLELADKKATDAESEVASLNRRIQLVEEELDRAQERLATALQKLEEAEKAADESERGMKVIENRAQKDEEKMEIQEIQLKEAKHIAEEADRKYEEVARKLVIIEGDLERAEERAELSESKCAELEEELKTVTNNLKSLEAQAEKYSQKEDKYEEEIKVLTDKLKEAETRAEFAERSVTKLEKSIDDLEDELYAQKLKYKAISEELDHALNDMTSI

## Phosphocarrier protein HPr wild type, P0AA04
[1]
  denaturant m value: 1.06 kcal/mol/M
  denaturant midpoint (higher = more stable): 4.34 M
Escherichia coli (strain K12), pH 7, 30 °C, Urea, CD, Potassium phosphate 50 mM, reversible: yes
  unfolding free energy: 4.95 kcal/mol
Escherichia coli (strain K12), pH 7, Thermal, CD, Potassium phosphate 10 mM
  Tm: 30 °C

## Phosphoenolpyruvate-protein phosphotransferase H189A, P08839
[2]
  Tm: 54 °C
  unfolding enthalpy (van 't Hoff): 118 kcal/mol
[3]
  Tm: 55.8 °C
  unfolding enthalpy (calorimetric): 143 kcal/mol

## Phosphoenolpyruvate-protein phosphotransferase H189E, P08839
[2]
  Tm: 52.1 °C
  unfolding enthalpy (van 't Hoff): 128 kcal/mol
[3]
  Tm: 53.7 °C
  unfolding enthalpy (calorimetric): 135 kcal/mol

## QQHADPICNKPCKTHDDCSGAWFCQACWNSARTCGPYVG [Metallocarboxypeptidase inhibitor wild type]
Solanum tuberosum, pH 8.4, 23 °C, GdnHCl, Fluorescence, Tris-HCl 0.1 M, whole UniProt chain shown
  denaturant midpoint (higher = more stable): 1.45 M
Solanum tuberosum, pH 8.4, 23 °C, GdnSCN, Fluorescence, Tris-HCl 0.1 M, whole UniProt chain shown
  denaturant midpoint (higher = more stable): 0.7 M

## Superoxide dismutase [Cu-Zn] wild type, P00442
Bos taurus, pH 7.8, Thermal, DSC, Potassium phosphate 100 mM, reversible: no (32%)
  Tm: 88.3 °C
[4]
  Tm: 59.9 °C
  unfolding enthalpy (calorimetric): 152 kcal/mol

## Tropomyosin alpha-1 chain wild type, P04268
Gallus gallus, pH 7, 39 °C, Thermal, CD, Sodium phosphate 10 mM, NaCl 0.5 M, reversible: yes
  unfolding free energy: 9 kcal/mol and 12.4 kcal/mol and 9.6 kcal/mol
Gallus gallus, pH 7, Thermal, CD, Sodium phosphate 10 mM, NaCl 0.5 M, reversible: yes
  unfolding enthalpy (van 't Hoff): 162 kcal/mol and 225 kcal/mol and 98 kcal/mol
